The values that follow come from patent US20230041071A1 (NATIONAL INSTITUTE OF BIOLOGICAL SCIENCES BEIJING, published 2023).

The target of one experiment is T1, hAREG-EGFd-mFc (human; mouse, UniProt P15514 142-184).
T1 construct: Expressed in 293F cells; not shown: Fc fragment of mouse IgG2a
T1 chain: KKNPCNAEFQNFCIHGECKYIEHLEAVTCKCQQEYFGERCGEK
The experiment in a line: SPR, Biacore T200; mAb captured on anti-human Fc chip, antigen in solution. The protocol:
(§1) To evaluate affinities of different mouse hybridoma mAbs or their humanized and engineered variants, SPR measurement was performed using Biacore T200 instrument. mAbs were captured on anti-human Fc CM5 biosensor chip surface, hAREG-EGFd-mFc, mAREG-EGFd-mFc or hAREG-98aa (purchased from PeproTech, cat #100-55B) in serial dilutions were injected over antibody-bound surface, followed by a dissociation phase. Association rates (Ka) and dissociation rates (Kd) were calculated using the one-to-one Langmuir binding model (BIA Evaluation Software, GE Life Sciences). The equilibrium dissociation constant (KD) was calculated as the ratio kd/ka.
Background: Surface plasmon resonance follows binding to a sensor surface in real time, without labels.

For the next experiment, the target named is T2, hAREG-98aa (human, UniProt P15514 101-198).
T2 construct: Bought protein
T2 sequence (looked up): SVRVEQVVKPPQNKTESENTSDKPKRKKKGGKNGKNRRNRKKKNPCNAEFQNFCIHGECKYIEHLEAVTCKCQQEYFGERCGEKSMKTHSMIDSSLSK
The experiment is described as above. The procedure:
as §1

B1: ch23H8 (antibody, V domains shown)
VH: EVQLQESGGGLVKPGGSLKLSCAASGFTFNSYAMSWVRQTPEKRLEWVATISTGGSHTYYPDSVKGRFTISRDNAKNTLYLQMSSLRSEDTAMYYCARHGYLLYDGYYEWYFDVWGAGTTVTVSS
VL: DIVLTQSPASLAVSLGQRATISCKASQSVDYDGHSFLNWYQQKPGQPPKLLIYAASNLESGLPARFSGSGSGTDFTLNIHPVEEEDAATYYCQQSTEDPPYTFGGGTKLEIK
notes: also called chimeric 23H8
As to B1, in the experiment with hAREG-EGFd-mFc, binding was put at a Kd of 0.75 nM, the koff (commonly a measure of how fast the partners let go of each other) is 0.000313 s⁻¹ and the kon (usually the rate constant with which the complex forms) worked out at 418000 M⁻¹ s⁻¹.

B2: hu1H9v1 (antibody, V domains shown)
VH: EVQLVESGGGLVKPGGSLRLSCAASGFTFSGYPMSWVRQAPGKGLEWVSTISTGARHTYYPDSVKGRFTISRDNAKNSLYLQMNSLRAEDTAVYYCARHEGLRRGKYHSIMDYWGQGTLVTVSS
VL: DIVLTQSPASLAVSPGQRATITCRASESVDYDGDSFINWYQQKPGQPPKLLIYAASNKDTGVPARFSGSGSGTDFTLTINPVEAEDTANYYCHQSNEDPYMFGQGTKLEIK
notes: Humanized 1H9; captured by anti-human Fc in SPR
With B2, in the experiment with hAREG-EGFd-mFc, the Kd (commonly the constant that tells how readily two partners part at equilibrium) worked out at 0.799 nM, the koff was found to be 0.000233 s⁻¹ and the kon is 291000 M⁻¹ s⁻¹.

B3: hu1H9v4 (antibody, V domains shown)
VH: EVQLVESGGGLVKPGGSLRLSCAASGFTFSGYPMSWVRQAPGKGLEWVSTISTGARHTYYPDSVKGRFTISRDNAKNSLYLQMNSLRAEDTAVYYCARHEGLRRGKYHSIMDYWGQGTLVTVSS
VL: DIQMTQSPSSLSASVGDRVTITCRASQSIDYDGDSFLNWYQQKPGKAPKLLIYAASNLQSGVPSRFSGSGSGTDFTLTISSLQPEDFATYYCQQSNEDPYVFGQGTKLEIK
notes: as for B2
With B3, in the experiment with hAREG-EGFd-mFc, the Kd amounted to 0.758 nM, the koff was 0.000184 s⁻¹ and the on-rate constant (kon) worked out at 243000 M⁻¹ s⁻¹.

B4: hu1H9v5 (antibody, V domains shown)
VH: EVQLVESGGGLVKPGGSLRLSCAASGFTFSGYPMSWVRQAPGKGLEWVSTISTGARHTYYPDSVKGRFTISRDNAKNSLYLQMNSLRAEDTAVYYCARHEGLRRGKYHSIMDYWGQGTLVTVSS
VL: DIVMTQSPDSLAVSLGERATINCKSSQSIDYDGDSFLNWYQQKPGQPPKLLIYAASNRESGVPDRFSGSGSGTDFTLTISSLQAEDVAVYYCQQSNEDPYVFGQGTKLEIK
notes: as for B2
In the experiment with hAREG-EGFd-mFc, B4 came in with a Kd of 0.811 nM, an off-rate constant (koff) of 0.000206 s⁻¹ and an on-rate constant (kon) of 254000 M⁻¹ s⁻¹.

B5: hu1H9v3 (antibody, V domains shown)
VH: EVQLVESGGGLVKPGGSLRLSCAASGFTFSGYPMSWVRQAPGKGLEWVSTISTGARHTYYPDSVKGRFTISRDNAKNSLYLQMNSLRAEDTAVYYCARHEGLRRGKYHSIMDYWGQGTLVTVSS
VL: DIVLTQSPASLAVSPGQRATITCRASESVDYDGDSFINWYQQKPGQPPKLLIYAASNKDTGVPARFSGSGSGTDFTLTINPVEAEDTANYYCHQSNEDPYVFGQGTKLEIK
notes: Humanized 1H9
In the experiment with hAREG-EGFd-mFc, B5 came in with a dissociation constant (Kd) of 0.969 nM, a koff of 0.000259 s⁻¹ and an on-rate constant (kon) of 267000 M⁻¹ s⁻¹.

B6: hu1H9v2 (antibody, V domains shown)
VH: EVQLVESGGGLVKPGGSLRLSCAASGFTFSGYPMSWVRQAPGKGLEWVSTISTGARHTYYPDSVKGRFTISRDNAKNSLYLQMNSLRAEDTAVYYCARHEGLRRGKYHSIMDYWGQGTLVTVSS
VL: DIVLTQSPASLAVSPGQRATITCRASESVDYDGDSFINWYQQKPGQPPKLLIYAASNKDTGVPARFSGSGSGTDFTLTINPVEAEDTANYYCHQSNEDPYLFGQGTKLEIK
notes: as for B2
In the experiment with hAREG-EGFd-mFc, B6 registered a Kd of 0.762 nM, a koff of 0.000229 s⁻¹ and a kon of 301000 M⁻¹ s⁻¹.

B7: hu23H8v1 (antibody, V domains shown)
VH: EVQLVESGGGLVKPGGSLRLSCAASGFTFNSYAMSWVRQAPGKGLEWVSTISTGGSHTYYPDSVKGRFTISRDNAKNSLYLQMNSLRAEDTAVYYCARHGYLLYDGYYEWYFDYWGQGTLVTVSS
VL: DIVLTQSPASLAVSPGQRATITCRASESVDYDGHSFINWYQQKPGQPPKLLIYAASNKDTGVPARFSGSGSGTDFTLTINPVEAEDTANYYCQQSTEDPPYTFGQGTKLEIK
notes: Humanized 23H8; captured by anti-human Fc in SPR
In the experiment with hAREG-EGFd-mFc, B7 came in with a Kd of 0.205 nM, an off-rate (koff) of 0.000214 s⁻¹ and a kon of 1.05e+06 M⁻¹ s⁻¹.

B8: hu23H8v2 (antibody, V domains shown)
VH: EVQLVESGGGLVKPGGSLRLSCAASGFTFNSYAMSWVRQAPGKGLEWVSTISTGGSHTYYPDSVKGRFTISRDNAKNSLYLQMNSLRAEDTAVYYCARHGYLLYDGYYEWYFDYWGQGTLVTVSS
VL: DIQMTQSPSSLSASVGDRVTITCRASQSVDYDGHSFLNWYQQKPGKAPKLLIYAASNLQSGVPSRFSGSGSGTDFTLTISSLQPEDFATYYCQQSTEDPPYTFGQGTKLEIK
notes: as for B7
B8: in the experiment with hAREG-EGFd-mFc, binding was put at a Kd of 0.244 nM, the koff turned out to be 0.000249 s⁻¹ and the kon was found to be 1.02e+06 M⁻¹ s⁻¹.

B9: hu23H8v3 (antibody, V domains shown)
VH: EVQLVESGGGLVKPGGSLRLSCAASGFTFNSYAMSWVRQAPGKGLEWVSTISTGGSHTYYPDSVKGRFTISRDNAKNSLYLQMNSLRAEDTAVYYCARHGYLLYDGYYEWYFDYWGQGTLVTVSS
VL: DIVMTQSPDSLAVSLGERATINCKSSQSVDYDGHSFLNWYQQKPGQPPKLLIYAASNRESGVPDRFSGSGSGTDFTLTISSLQAEDVAVYYCQQSTEDPPYTFGQGTKLEIK
notes: as for B7
In the case of B9, in the experiment with hAREG-EGFd-mFc, the affinity, expressed as Kd, was 0.178 nM; the koff was determined as 0.000213 s⁻¹; the kon is 1.2e+06 M⁻¹ s⁻¹.

B10: hu23H8v5 (antibody, V domains shown)
VH: EVQLVESGGGLVKPGGSLRLSCAASGFTFSSYAMSWVRQAPGKGLEWVSTISTGGSHTYYPESVKGRFTISRDNAKNSLYLQMNSLRAEDTAVYYCARHGYLLYEGYYEWYFDYWGQGTLVTVSS
VL: DIQMTQSPSSLSASVGDRVTITCRASQSVDYEGHSFLNWYQQKPGKAPKLLIYAASNLQSGVPSRFSGSGSGTDFTLTISSLQPEDFATYYCQQSTENPPYTFGQGTKLEIK
notes: Humanized 23H8 variant
Consider B10, for which, in the experiment with hAREG-EGFd-mFc, binding was put at a Kd of 0.565 nM, the dissociation rate constant (koff) came out at 0.000348 s⁻¹ and the on-rate (kon) amounted to 628000 M⁻¹ s⁻¹.

B11: hu23H8v4 (antibody, V domains shown)
VH: EVQLVESGGGLVKPGGSLRLSCAASGFTFSSYAMSWVRQAPGKGLEWVSTISTGGSHTYYPESVKGRFTISRDNAKNSLYLQMNSLRAEDTAVYYCARHGYLLYEGYYEWYFDYWGQGTLVTVSS
VL: DIVLTQSPASLAVSPGQRATITCRASESVDYDGHSFINWYQQKPGQPPKLLIYAASNKDTGVPARFSGSGSGTDFTLTINPVEAEDTANYYCQQSTEDPPYTFGQGTKLEIK
notes: Humanized 23H8 variant; captured by anti-human Fc in SPR
For the molecule B11, in the experiment with hAREG-EGFd-mFc, the Kd was found to be 0.336 nM, the koff came to 0.000276 s⁻¹ and the kon was 821000 M⁻¹ s⁻¹.

B12: hu23H8v6 (antibody, V domains shown)
VH: EVQLVESGGGLVKPGGSLRLSCAASGFTFSSYAMSWVRQAPGKGLEWVSTISTGGSHTYYPESVKGRFTISRDNAKNSLYLQMNSLRAEDTAVYYCARHGYLLYEGYYEWYFDYWGQGTLVTVSS
VL: DIVMTQSPDSLAVSLGERATINCKSSQSVDYEGHSFLNWYQQKPGQPPKLLIYAASNRESGVPDRFSGSGSGTDFTLTISSLQAEDVAVYYCQQSTENPPYTFGQGTKLEIK
notes: Humanized 23H8 variant
In the experiment with hAREG-EGFd-mFc, B12 returned a Kd of 0.309 nM, a koff of 0.000246 s⁻¹ and a kon of 803000 M⁻¹ s⁻¹. In the experiment with hAREG-98aa, this molecule displayed a Kd of 0.537 nM and an on-rate constant (kon) of 1.11e+06 M⁻¹ s⁻¹.

B13: ch1H9 (antibody, V domains shown)
VH: EVKLMESGGDLVKPGGSLKLSCVASGFTFSGYPMSWVRQTPEKRLEWVATISTGARHTYYPDSVKGRFTISRDNAKNTLYLQMSSLRSEDTAMYYCARHEGLRRGKYHCIMDYWGQGTSVTVSS
VL: DILLTQSPASLAVSLGQRATISCKASQSIDYDGDSFLNWYQQKPGQPPKLLIYAASNLESGIPARFSGSGSGTDFTLNIHPVEEEDAATYYCHQCNEDPYMFGGGTKLEIR
notes: also called chimeric 1H9
Molecule B13 had a Kd with hAREG-EGFd-mFc of 1.31 nM.

B14: hu9C12v1 (antibody, V domains shown)
VH: EVQLVESGGGLVKPGGSLRLSCAASGFTFSSYPMSWVRQAPGKGLEWVSTISTGGTYTYYPDSVKGRFTISRDNAKNSLYLQMNSLRAEDTAVYYCARQGPIYYGNYYYAMDYWGQGTTVTVSS
VL: DIVMTQSPLSLPVTLGQPASISCRSSQSLVHSDGNTYLHWYQQRPGQSPKLLIYKVSNRFSGVPDRFSGSGSGTDFTLKISRVEAEDVGVYYCSQSTHVPYTFGGGTKVEIK
notes: Humanized 9C12; captured by anti-human Fc in SPR
In the experiment with hAREG-EGFd-mFc, B14 yielded a dissociation constant (Kd) of 1 nM, a koff of 0.000572 s⁻¹ and a kon of 570000 M⁻¹ s⁻¹.

B15: hu9C12v5 (antibody, V domains shown)
VH: EVQLVESGGGLVKPGGSLRLSCAASGFTFSSYPMSWVRQAPEKGLEWVSTISTGGTYTYYPDSVKGRFTISRDNAKNSLYLQMNSLRAEDTAVYYCARQGPILRKNYYYGMDVWGQGTTVTVSS
VL: DVVMTQSPLSLPVTLGDPASISCRSSQSLVDGQDGTYLHWYQQRPGQSPKLLIYKVSNRFDGVPDRFSGSGSGTDFTLKISRVEAEDVGVYYCSQSTHVPYTFGQGTKLEIK
notes: Humanized 9C12 variant; captured by anti-human Fc in SPR
For the molecule B15, in the experiment with hAREG-EGFd-mFc, binding was characterised by a dissociation constant (Kd) of 0.852 nM, the koff is 0.000411 s⁻¹ and the kon was 483000 M⁻¹ s⁻¹. For the same molecule, in the experiment with hAREG-98aa, the Kd is 0.349 nM, the koff came to 0.00283 s⁻¹ and the kon was found to be 8.11e+06 M⁻¹ s⁻¹.

B16: ch9C12 (antibody, V domains shown)
VH: EVKLVESGGGLVKPGGSLKLSCAASGFTFSSYPMSWVRQTPEKRLEWVATISTGGTYTYYPDSVKGRFTISRDNAKNTLYLQMSSLRSEDTAMYYCARQGPIYYGNYYYAMDYWGQGTSVTVSS
VL: DIVMTQPPLSLPVSLGDQASISCRSSQSLVHSDGNTYLHWYLQRPGQSPKLLIYKVSNRFSGVPDRFSGSGSGTDFTLKISRVEAEDLGVYFCSQSTHVPYTFGGGTKLEIK
notes: also called chimeric 9C12
As for B16, in the experiment with hAREG-EGFd-mFc, binding was characterised by a dissociation constant (Kd) of 1.71 nM, the dissociation rate constant (koff) was determined as 0.001 s⁻¹ and the kon worked out at 587000 M⁻¹ s⁻¹.
